Reference: patent US20020106347A1, “Cytokines and their use in treatment and/or prophylaxis of breast cancer” (priority 1995, published 2002)

Experiments:
Assay type in all cases: cell-based, human
MCF-7 cells [1] = assay: Proliferation of MCF-7 cells in monolayer (liquid) culture, viable cell count; details: for mean inhibition of cell proliferation: MCF-7, 7 days exposure, LIF 1000 U/ml, IL-6 100 ng/ml, OSM 10 ng/ml, IL-11 100 ng/ml, vs untreated control; for effect on cell proliferation (in words): MCF-7 / MCF-7M, up to 1 week culture
Experimental: FIGS. 2A, B and C are graphical representations of MCF-7M cells in liquid culture. 10^4 MCF-7M cells were cultured in 500 μl RPMI/10% bovine calf serum (BCS) (v/v) containing the indicated concentration of each of the growth factors (OSM or LIF). After 7 days culture viable cells were counted using a hemacytometer. Cell numbers reported here are the result of one experiment, each performed in triplicate.
FIG. 7 is a graphical representation showing inhibition of proliferation of MCF-7 cells by Oncostatin M (OSM). 10^4 MCF-7 cells were cultured in 500 μl RPMI/10% (v/v) BCS with the indicated concentrations of OSM. At 2, 4 and 6 days, viable cells were counted using a hemacytometer. Results are from 3 experiments, each performed in triplicate.
FIG. 8 is a graphical representation showing that MCF-7 cells are inhibited in a dose-dependent fashion by Oncostatin M (OSM). 10^4 MCF-7 cells were cultured in 500 μl RPMI/10% (v/v) BCS with the indicated concentrations of OSM. After 7 days viable cells were counted, and cell number expressed as a percentage of the corresponding untreated control value.
(§1) FIG. 16 is a graphical representation showing inhibition of MCF-7 cells after 7 days in suspension culture. 10^4MCF-7 cells were cultured in 500 μl RPMI/10% (v/v) BCS with the indicated growth factor. After 7 days viable cells were counted using a hemacytometer. Results are from 9 experiments, each performed in triplicate.
(§2) Proliferation of the cell lines was measured in monolayer culture in 24 well Costar cluster plates. Cells were plated at an initial density of 10 000 cells/ml and cultured in 500 μl RPMI-1640 supplemented with 10% (v/v) (v/v) BCS and with each growth factor as indicated (LIF, 1000 U/ml; IL-6, 100 ng/ml; OSM, 10 ng/ml; CNTF, 10 ng/ml; IL-11, 100 ng/ml). These concentrations are maximally active in other systems (Nandurkar et al., 1996; Hilton et al., 1994; Zhang et al., 1994; Tanigawa et al., 1995). After 7 or 10 days at 37° C. in a fully humidified atmosphere containing 10% (v/v) CO2 in air, cells were trypsinised and counted using a haemocytometer and an inverted microscope. Cell viability was assessed using eosin exclusion. Results were expressed as a percentage of the corresponding untreated control value for that experiment.

MCF-7 cells [2] = assay: Clonogenic assay in agar after monolayer culture; details: MCF-7, 7 days monolayer then 14 days agar
Experimental: FIG. 3 is a graphical representation showing clonogenicity of MCF-7M cells. Following suspension culture MCF-7M cell viability was measured by agar culture. Cells were plated in agar with the indicated concentrations of each of the growth factors. After 14 days culture colonies of cells were counted. Cell numbers reported here are the results of 3 experiments, each performed in triplicate, and are expressed according to the number of cells that went into suspension culture.
FIG. 17 is a graphical representation showing clonogenicity of MCF-7 cells after 1 week in suspension culture. Following suspension culture clonogenicity of MCF-7 cells was assayed in agar culture. Cells were plated in agar with the indicated growth factor and maintained at 37° C0 in a humidified incubator with 5% CO2 in air. After 14 days colonies of cells were counted. Results are from 9 experiments using IL-6, LIF and OSM, and 5 experiments using CNTF and IL-11. Each experiment was performed in triplicate, and colony numbers are expressed as a percentage of untreated controls.
Clonogenic potential of cells following monolayer culture was assessed in a semi-solid culture medium. Cells were cultured in triplicate in 35 mm Petri dishes containing 1 ml Iscove's modified Dulbecco's medium (IMDM) supplemented with 25% (v/v) (v/v) BCS, 0.3% (w/v) agar with final concentration of growth factor as outlined above, and with 200 cells per ml for control cultures Cultures were maintained at 37° C. in a humidified incubator with 5% (v/v) CO2 in air. After 14 days, colonies were enumerated using a dissecting microscope. A colony was defined as a clone of greater than 40 cells. All cultures were performed in triplicate.

MCF-7 cells [3] = assay: Cell morphology after exposure to growth factor; details: MCF-7 / MCF-7M, 6-14 days in growth factor
Text: FIG. 4 is a photographic representation showing morphology of growth factor stimulated MCF-7M cells. Following 1 week in suspension culture containing the various growth factors, MCF-7M cells were cytospun onto slides and subsequently stained with Giemsa.
FIG. 11 is a photographic representation showing cell morphology after exposure to OSM. MCF-7 cells from control cultures and appears of cells after 7 days in OSM. A) Control cells, 10× magnification. B) OSM treated cells, 10× magnification. C) OSM treated cells, 40× magnification. D) OSM treated cells, 100× magnification.
FIG. 15 is a photographic representation showing cell morphology after exposure to OSM. MCF-7 cells from control cultures (Panel A) and appearance of cells after culture for 14 days in OSM (10 ng/ml) (Panel B). MDA-MB-231 cells from control cultures (Panel C) and appearance of cells after culture for 7 days in OSM (Panel D).

[4] = system: four breast cancer cell lines; assay: Proliferation of four breast cancer cell lines in monolayer culture (summary)
Experimental: as §2
Experiments were performed to determine whether these morphological changes were associated with alterations in cell growth. The proliferation of four breast cancer cell lines was examined in monolayer cultures containing either IL-6, LIF, OSM, CNTF or IL-11.

MDA-MB-231 cells = assay: Proliferation of MDA-MB-231 cells in culture, viable cell count; details: MDA-MB-231
Experimental: as §1, with “19” for “16”, “MDA-MB-231” for “inhibition of MCF-7”, “10^4MDA-MB-231” for “10^4MCF-7”, “8” for “9”
as §2

BT-549 cells = assay: Proliferation of BT-549 cells in culture, viable cell count
Experimental: FIGS 5A and B are graphical representations of BT-549 cells in liquid culture. 10^4 BT-549 cells were cultured in 500 μl RPMI/10% (v/v) BCS containing the relevant concentration of each of the growth factors (OSM, IL-11 and IL-6). After 10 days, culture viable cells were counted using a hemacytometer. Cell numbers reported here in the two graphs are the results of 1 experiment performed in triplicate.
FIG. 18 is a graphical representation showing BT-549 cells after 10 days in suspension culture. 10^4BT-549 cells were cultured in 500 μl RPMI/10% (v/v) BCS with the indicated growth factor. After 10 days culture viable cells were counted using a hemacytometer. Results are from 6 experiments, each performed in triplicate.
as §2

| Molecule | mean inhibition of cell proliferation (MCF-7 cells [1]) [%] | effect on cell proliferation (in words) (MCF-7 cells [1]) | effect on colony formation / clonogenic potential (in words) (MCF-7 cells [2]) | cell morphology (in words) (MCF-7 cells [3]) | cell lines with significant inhibition of cellular proliferation [4] | effect on cellular proliferation (in words) (MDA-MB-231 cells) | effect on cell proliferation (in words) (BT-549 cells; BT-549) | mean growth inhibition (BT-549 cells; BT-549, 7 days) [%] | growth inhibition, up to (maximum observed) (BT-549 cells; BT-549, 10 days) | mean growth inhibition (BT-549 cells; BT-549, 10 days) [%] |
| --- | --- | --- | --- | --- | --- | --- | --- | --- | --- | --- |
| interleukin-6 [IL-6] | 23 | did not appear to be able to induce inhibition | significant reduction of colony formation | morphologically similar to the control | ¼ |  |  |  |  |  |
| ciliary neurotrophic factor (protein, UniProt P26441 1-200, looked up, human CNTF purchased from AMRAD Operations Ltd; cytokine) Ciliary neurotrophic factor: MAFTEHSPLTPHRRDLCSRSIWLARKIRSDLTALTESYVKHQGLNKNINLDSADGMPVASTDQWSELTEAERLQENLQAYRTFHVLLARLLEDQQVHFTPTEGDFHQAIHTLLLQVAAFAYQIEELMILLEYKIPRNEADGMPINVGDGGLFEKKLWGLKVLQELSQWTVRSIHDLRFISSHQTGIPARGSHYIANNKKM |  | no effect on cellular proliferation | no effect on clonogenic potential |  |  | did not respond |  |  |  |  |
| interleukin-11 (protein, UniProt P20809 22-199, looked up, human IL-11 purchased from Pepro Tech; cytokine) Interleukin-11: PGPPPGPPRVSPDPRAELDSTVLLTRSLLADTRQLAAQLRDKFPADGDHNLDSLPTLAMSAGALGALQLPGVLTRLRADLLSYLRHVQWLRRAGGSSLKTLEPELGTLQARLDRLLRRLQLLMSRLALPQPPPDPPAPPLAPPSSAWGGIRAAHAILGGLHLTLDWAVRGLLLLKTRL | 27 |  | did not have detectable effect on subsequent clonogenicity |  | 2/4 |  | inhibited | 30 | up to 63% | 56 |
